# According to the nanobody polyreactivity screen of Harvey et al. (2022):
# Assay: yeast display, Sf9 membrane polyspecificity reagent, FACS + sequencing; frameworks hold sequencing errors
# Summary of the method: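 Synthetic nanobody libraries on Saccharomyces cerevisiae BJ5465 were galactose-induced for 36–48 hours, stained 1 hour at 4 °C with 10% biotinylated, detergent-solubilized Sf9 membrane reagent and enriched on streptavidin microbeads. FACS then separated cells into low and high (top ~1%) gates by anti-HA (expression) and streptavidin (reagent binding) fluorescence. Genes were colony-PCR amplified, MiSeq 2 × 250 sequenced and CDR-length filtered. A clone's polyreactivity label is that of its gate of origin.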
row,Sequence,polyreactivity (PSR sort gate)
1,QVQLVESGGGLVQAGGSLRLSCAASGRTFYYYAMGSYRQAPGKEREFVAAITTRGGSTYYADSVKGRFTISRDNAKNTVYLQMNSLKPEDTAVYYCAARSYYQGGYYYWGQGTQVTVSS,high polyreactivity
2,QVQLVESGGGLVQAGGSLRLSCAASGIIFVSYAMGWYRQAPGKERELVADITSGGRTYYADSVKGRFTISRDNAKNTVYLQMNSLKPEDTAVYYCAATYSYKGRWVWVYYWGQGTQVTVSS,high polyreactivity
3,QVHLVESGGGLVQAGGSLRLSCAASGSIFGRYAMGWYRQAPGKERELVANITSGDSTNYADSVKGRFTISRDNAKNTVYLQMNSLKPEDTAVYYCAAYRIGQYDYWGQGTQVTVSS,high polyreactivity
4,QVQLVESGGGLVQAGGSLRLSCAASGSTLRAYAMGWYRQAPGKDRELVAAISGRGGRTYYADSVKGRFTISRDNAKNTVYLQMNSLKPEDTAVYYCATRYREPYVWPYDYWGRGTQVTVSS,high polyreactivity
5,QVQLVESGGGLVQAGGSLRLSCAASGSTFLYYAMGWYRPAPGKEREFVASISGSGGSTNYADSVKGRFTISRDNAKTTVYLQLNSLKPEDTAVYYCAAGYGGWAWNHVSYGGDYWGQGTQVTVSS,low polyreactivity
6,QVQLVESGGGLVQAGGSLRLSCSASGSTFGRYAMGWYRQAPGKERELVAAISARGGSTYYADSVKGRFTISRDNAKNTVYLQMNSLKPEDTAVYYCNVDYLLHGGRFDYWGQGTQVTVSS,high polyreactivity
7,QVQLVESGGGLVQAGGSLRLSCAASGRIFYSYAMGWYRQAPGKERELVAAIDESDGSPYYADSVKGRFTISRDNAKNTVYLQMNSLKPEDTAVYYCAADSLLVLFDYWGQGTQVTVSS,low polyreactivity
8,QVQLVESGGGLVQAGGSLRLSCAASGSIFYSNAMGWYRQAPGKERELVAAISVSGVSTYYADSVKGRFTISRDNAKNTVYLQMNSLKPEDTAVYYCAADTGYRYDDYYWWGGEYDYWGQGTQVTVSS,low polyreactivity
9,QVQLVESGGGLVQAGGSLRLSCAASGSIFSINARGWYRQAPGKERELVAAITYSTGSTYYADSVKGRFTISRDNAKNTVYLQMNSLKPEDTAVYYCAAVYKRTYLHSQTYGYYYWGQGTQVTVSS,high polyreactivity
10,QDQLVESGGGLVQAGGSLRLSCAASGSIFSYYAMGWYRHAPAKDRELVAAITGVGGTNYADSVKGRFTISRDNAKNTVYLQMNSLKPEDTAVYYCAARQYWRRYQYYYWGQGTQVTVSS,high polyreactivity
11,QVQLVESGGGLVQAGGSLRLSCADSGSIGLYAMGWYRQAPGKETELVAVISRNGGSTYYADSVKGRFTISRDNAKNTVYLQMNSLKPEDTAVYYCAKRRLERGTGDYWGQGTQVTVSS,high polyreactivity
12,QVQLVESGGGLVQAGGSLRLSCAASGNIFTGNAMGWYRQAPGKERELVAAISSGGGSTYYADSVKGRFTISRDNAKNTVYLQMNSLKPEDTAVYYCAASRVRYSYGYPYYYWGQGTQVTVSS,high polyreactivity
13,QVHLVESGGGLVQAGGSLRLSCAASGRIFYGYAMGWYRQAPGKEREFVAAITVSAGSTYYADSVKGRFTISRDNAKNTVYLQMNSLKPEDTAVYYCAGENGSKEFDYWGQGTQVTVSS,low polyreactivity
14,QVQLVESGGGLVQAGGSLRLSCAASGITFHRNTMGWYRQAPGTETELVDSITSGGITYYADSVKGSFTISRDNEKNTVYLQMNSLKPEDTAVYYCAAEGYWTYWVARSDIPYFYWGQGSQVTVSS,high polyreactivity
15,QVQLVESGGGLVQAGGSLRLSCAASGITFDGYAMGWYRQAPGKETELVAANSWSGGRTYYADSVKGRFTISRDNAKNTVYLQMNSLKPEDTAVYYCGVYRRGVVYLLTSGVDYWGQGTQVTVSS,high polyreactivity
16,QVQLVESGGGLVQAGGSLRLSCAAYGSNYSTYTMGWYRTAAGKERQLVAAITRSGGSTYYADSVKGRFTISRDNAKKTDYLQMNSLKPEDTAVFYCAARGQAYSGDRMYYWGLGTQVTVSS,high polyreactivity
17,QVQLVESGGGLVQAGGSLRLSCAASGFDGYAMGWYRQAPGKERELVAAISWSGSRTYYADSVKGRFTISRDNAKNTVYLQMNSLKPEDTAVYYCAADDVGRGSTPYDYWGQGTQVTVSW,high polyreactivity
18,QVQLVESGGGLVQAGGSLRLSCAASGRTFFPYAMGWYRQAAGKERELVDAISLDDDTTYYADSVKGRFTISRDTAQNTVYLQMNSLKPEDTAVYYCATDGIVIYGGYYTGYDYWGQGTQVTVSS,high polyreactivity
19,QVQLVESGGGLVQAGGSLRLSCAASGRIFGGYTMGSYRQAPGKERELVAAITRSDGSTTYADSVKGRFTISRDNAKNTVSLQMNSMKPEDTAVYYCAAPRASGYYWGQCTQVTVSS,high polyreactivity
20,QVQLVESGGGLVQAGGSLRLSCAASGRIFFANTMGWYRQATGKERELVAAISLSSGSRYYADSVKGRFTISRDNAKNTVYLQMNSLKPEDTAVYYCAARGYSHVASRLYYYWGQGTQVTVSS,high polyreactivity
21,QVQLVESGGGLDQAGGSLRLSCAASGLTFYSNAMGWYRQAPGKERELVARISTGGSTYADSVKGRFTISRDNAKNTVYLQMNSLKPEDTAVNYCAKLPPRGIDDEYWGQGTQVTVSS,low polyreactivity
22,HVQLVESGGGLVQAGGSLRLSCAASGYTFVPYAMGWYRQAPGKERELVAAISSSGGDTYYADSVKGRFTISRDNAKNTVYLQMNSLKPEDTAVYYCNTGVYVWQYWYYGFDYWGQGTQVTVSS,low polyreactivity

row,Sequence,polyreactivity (PSR sort gate)
1,QVQLVESGGGLVQAGGSLRLSCAASGSTFAHKAMGWYRQAPGKEGEFVAGISTNGGSTYYADSVKGRFTISRDNAKNTVYLQMNSLKPEDTAVYYCAAVNYYDQYGDYYWGQGTQVTVSS,low polyreactivity
2,QVQLVESGGGLVQAGGSLRLSCAASGSTFQFYAMGWYRQAPGKERELVAAIDGSDGDTYYADSVKGRFTISRDNAKNTVYLQMNSLKPEDTAVYYCNADRDALVGYDYDYWGQGTQVTVSS,low polyreactivity
3,QVQLVESGGGLVQAGGSLRLSCAASGSTFNRNAMGWYRHAPGKERELVATISTGGVSTYYADSVKGRFTISRDNAKNTVYLQMNSLKPEDTAVYYCAKRTVYLSNLDYWGQGTQVTVSS,low polyreactivity
4,EEELVESGGGLVQAGGSLLLSCAAYGRILPRNDMGWYRQAPGKERELVAVISSGGSTYYPDSVKGRFTISRDNAKNTVYLQINSVKPEDTAVYYCLGGYYYLQYDYWGQGTQVTVSS,low polyreactivity
5,QVQLVESGGGLVQAGGSLRLSCAASGFIFGGYAMGWSRQAPGKERELVAAISRSGGSTYYADSVKGRFTISRDNAKNTVYLQMNSLKPEDTAVYYCNAVPRRQGFNYWGQGTQVTVSS,high polyreactivity
6,QDQIVESGVGLVQAGGTLRLSCAASGFTFRRYVMGWYRQAPGKERELVAAISQSGGSTYYADSVKGRFTISRDNAKNTVYLQMKSLKPEDTAVYYCAATGAFWYPYDYWGQGTQVTVSS,high polyreactivity
7,QVQLVVSGGGLVQAGCTHRISCAPSGRISKLYAMGWSIPAPGKERELVAAISWRGGSTYYADSVKGRFTISRDNAKITVYLQLYSLKPEDTAVYFCNKAYPADDDYWGQGTQVSVSS,low polyreactivity
8,QVQHVESGGGLVQAGGSLRLSCAASAFTFRFYAMGWYRQAPAKEMELVAAISWSGTSTYYADSVKGRFTLSRDNAKNTVYLQMNSLIQDDTAVYYCATQYRRRQRKYDYWGQGTQVTVSS,high polyreactivity
9,QVQLVESVGGLVQAGGSLRLSCAASGRIFRWNAMGWYRQAPGKEREFVAAISWSGGSTYYADSVKGRFTISRDNAKNTFYLQMNSLKPEDTAVYYCNKVGYYCVGTSQEFDYWGQGTQVTVSS,high polyreactivity
10,QVQHVESGGALVQAGGSLRLSCAASARTFPGYTMGWYRQAPGKETELVAAITRVGTTYYADSVKGRFTISRDNAKNTVYLQMNSLKPEDTAVYYCAAVISQGFIRYYYWGQGTQVTVSS,high polyreactivity
11,QVQLVESGGGLVQAGGSLRLSCAASGSIFPGYAMGWYRQAPGKERELVAGITWSDARTYYADSVKGLFTISRDNAKNTVYLQMNSLKPEDTAVYYCAADYYYYERDYWGQGTQVTVSS,low polyreactivity
12,QVQLVESRGGLVQAGGSLRLSCAASGRIFNAYAMGWYRQAPGKERELVAAITVSGTRTYYADSVKGRFTISRDNAKNTVYLQMNSLKPEDTAVYYCAAEVVNYWYSYDYWGQGTQVTVSS,high polyreactivity
13,QVQLVESGGGLVQAGGSLRLSCAASGFNFWRYAMGWYRQAPGKERELVASITSTGGSTYYADSVKGRFTISRDNAKNTVYLQMNSLKPEDTAVYYCAADTFVWADWSWHYYWGQGTQVTVSS,high polyreactivity
14,QVQLVESGGGLVQAGGSLRLSCAASGSSFSYYTMGWYRQAPGKERELVAAITSGGPTNYADSVKGRFTISRDNAKKTVYLQMNSLKPEDTAVYYCAADLYYGWGYYYWGQGTQVTVSS,low polyreactivity
15,QVQLVESGGGLVQAGGSLRLSCAASGSIFVYNAMGWYRQAPGKERELVAAIDTVGSTNYADSVKGRFTISRDNAKNTVYLQMNSVKPVDPAVYYCAVVTPYWSFYEQVIPSNYWGQGTQVTVSS,low polyreactivity
16,QVQLVESGGGLVQAGGSLRLSCADSGLTFYDYAMGWYRQAPGKERELVADIDFNGGSTSYADSVKGRFTISRDNAKNTVYLQMNSLKPEDTAVYYCNTRDRGDVVTGLDYWGQGTQVTVSS,low polyreactivity
17,QVQLEESGGGLVQAGGSLRLSCAASGFTFVPYAMGWYRPAPGKETEFVAALFSDGSTYYADSVKGRFTISRDNAKNTVYLQMNSLKPEDTAVYYCAAAGESSRTGHFDYWGQGTQVTVSS,low polyreactivity
18,QVQLVESGGGLVQAGGSLRLSCAPSGFTFGDYAMGWYRQSPGTESELDAAISWSGGSTYYADSVKGRFTISRDNAKTTVYLQMNSLKPEDTAVYYCAAVDSATIEDDYWGQGTQVTVSS,high polyreactivity
19,QVQLVESGGGLVQAGGSLRLSCAASGRTFGYYTMGWYRQAPGKEWELVATIRWSGGSTYADSVKGRFTISRDNAKNTVYLQLNSLKPEDTAVYYCYVDPSYYKILFNGFYYWGQGTQVTVSS,high polyreactivity
20,HVQLVESGGGLVQAGGSLRLSCAASGRTFIYNAMGWYRQAPGKEREFVAANTWSGATTRYADSVKGRFTISRDNAKNTVYLEMNSLKPEDTAVYYCAKGGFYYYGWRSSMDYWGQGTQVTVSS,high polyreactivity
21,QVQLVESGGGLVQAGGSLRLSCAASGSTFWSYTMGWYRQAPGKERELVARITGRGGSTYYADSVKGRFTISRDNAKNTVYLLMNSLKPEDTAVYYCAAGGGRYGFYRFDYWGQGTQVTVSS,low polyreactivity
